Experiments:
thrombin = molecular target: T1, thrombin (Homo sapiens, UniProt P00734); assay: Stability of HBGF-1β to thrombin in the presence of heparin (Western blot); type: biochemical; conditions: heparin as low as 5U/ml; thrombin 250 U/ml; 37° C.
T1 construct: converts prothrombin into thrombin
Procedure: FIGS. 1A-1F show Western blots of gels on which samples containing HBGF-1β had been incubated with 250 U/ml thrombin in the presence of increasing concentrations of heparin. Solutions containing HBGF-1β (10 μg/ml), thrombin ([…]), and increasing concentrations of heparin (0, 0.5, 5, 10, 20, and 50 units/ml) were incubated at 37° C. for 72 hours. Aliquots were periodically removed from each of the incubating mixtures and were loaded onto 8% SDS polyacrylamide gels that were prepared and run as described by Laemmli (Nature 227:680 (1970)). The gel was then electroblotted onto nitrocellulose and the band corresponding to HBGF-1β was identified using an affinity-purified polyclonal rabbit antiserum to HBGF-1β.
The concentrations of heparin in the incubating mixtures were: panel A) 0 units/ml; panel B) 0.5 U/ml; Panel C) 5 U/ml; panel D) 10 U/ml; panel E) 20 U/ml; and panel F) 50 U/ml. […]
Similarly, the ability of a selected inhibitor to protect a growth factor from degradation by TS components may be assessed by any method known to those of skill in the art. […]
It was necessary to add an ingredient to the FG that would inhibit or prevent the digestion of HBGF-1β by thrombin (Lobb, Biochem. 27:2572-2578 (1988)), which is a component of FG. […] The stability of HBGF-1 in the presence of increasing concentrations of heparin was assessed. […]

NIH 3T3 cells = assay: 3H-thymidine incorporation assay with NIH 3T3 cells; type: cell-based; conditions: after incubation with 250 U/ml thrombin and 5 U/ml heparin for 0, 24 or 72 hours
Procedure: FIG. 2. Graph ShowingReissue the incorporation of ^3H-thymidine as a function of relative HBGF-1β concentration. Samples of the HBGF-1β were incubated, as described in FIG. 1 and Example 2, in the presence of 250 U/ml thrombin and 5 U/ml heparin for 0, 24 or 72 hours. Dilutions of these samples were then added to NHI 3T3 cells, which were plated as described in Example 3. CPM is plotted v. HBGF-1 concentration.
The biological activity of HBGF-1 in the incubation mixture that contained 5 U/ml of heparin, and was described in Example 2, was measuring using an ^3H-thymidine incorporation assay with NIH 3T3 cells.
NIH 3T3 cells were introduced into 96 well plates and were incubated at 37° C. under starvation conditions in Dulbecco's Modified Medium (DMEM; GIBCO, Grand Island, N.Y.) with 0.5% […] bovine serum (BCS; GIBCO, Grand Island, N.Y.) until the cells reached 30 to 50% confluence. Two days later, varying dilutions of HBGF-1 from the samples prepared in Example 2 were added to each well without changing the medium. Diluent (incubation buffer) was added in place of growth factor for the negative controls and DMEM with 10% BCS, which contains growth factors needed for growth, was added in place of the HBGF-1 sample for the positive controls. […]

protection of HBGF-1β from digestion by thrombin (thrombin): protected from digestion by thrombin
Substance: HBGF-1: heparin binding growth factor-1, also known as ECGF and FGF-1; recombinant HBGF-1β expressed in E. coli
biological activity (3H-thymidine incorporation) (NIH 3T3 cells): retained its biological activity
